Data from patent US20080181886A1 (Genentech, published 2008).

T1: Murine APRIL (mouse, UniProt Q9D777 105-241, limits assumed)
T1 sequence (looked up): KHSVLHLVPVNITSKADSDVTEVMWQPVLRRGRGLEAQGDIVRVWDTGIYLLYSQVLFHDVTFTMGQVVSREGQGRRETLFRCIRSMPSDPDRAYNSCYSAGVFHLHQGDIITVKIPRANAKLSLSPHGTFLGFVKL


Each binder was assayed against T1, Murine APRIL (assay: shotgun scan, phage display).
Source text: Phage from each of the libraries described above were subjected to rounds of binding selection against APRIL, BAFF, or anti-tag antibody (3C8:2F4 Genentech, Inc.) immobilized on 96-well Nunc Maxisorp immunoplates (Sidhu, 2001). BSA-coated wells were used to determine non-specific background binding. Phage eluted from each target were propagated in E. coli XL1-Blue in the presence of M13K07 helper phage; amplified phage were used for selection against the same target in the […] round. […] Enrichment was calculated from the ratio of the phage titer eluted from the target-coated wells to the phage titer eluted from the BSA-coated wells. Individual clones from each library and selection target were then grown in a 96-well format in 400 ul of 2YT medium supplemented with carbenicillin and KO7 helper phage. […] Sequences of acceptable quality were translated and aligned. For APRIL-binding, 71, 40, and 54 sequences were analyzed from libraries one, two and three, respectively. For BAFF-binding, 70, 50, and 53 sequences were analyzed for libraries one, two and three, respectively. For the display selection, a minimum of 47 sequences were analyzed for each library. […] F values describe the effect of mutation on target binding, while accounting for differences in display efficiencies, with values >1 representing deleterious mutations and those <1 representing favorable mutations.

Row | Binder | F (APRIL)
1 | SLSCRKEQGKFYDHLLRDCISCASICGQHPKQCAYFCANKLR (receptor, phage library variant, format as m9) [TACI_d2 E105A] | 1.7
2 | SLSCRKEQGKFYDDLLRDCISCASICGQHPKQCAYFCENKLR (receptor, phage library variant, format as m9) [TACI_d2 H81D] | 0.9
3 | SLSCRKEQGKFYDHLLRDCISCASICGQHPKQCAYFCEDKLR (receptor, phage library variant, format as m9) [TACI_d2 N106D] | 1.2
4 | SLSCRKEQGKFYDHLLRDCISCASICGQHPKQCAYFCENKPR (receptor, phage library variant, format as m9) [TACI_d2 L108P] | 1.4
5 | SLSCRKEQGKFYDHLLRDCISCASICGQDPKQCAYFCENKLR (receptor, phage library variant, format as m9) [TACI_d2 H96D] | > 24
6 | SLSCRKEQGKFYDHLLRDCISCASICGAHPKQCAYFCENKLR (receptor, phage library variant, format as m9) [TACI_d2 Q95A] | 6.6
7 | SLSCRKEQGKFYDHLPRDCISCASICGQHPKQCAYFCENKLR (receptor, phage library variant, format as m9) [TACI_d2 L83P] | > 20
8 | SLSCRKEQGKFYDHLLRDCISCASICGPHPKQCAYFCENKLR (receptor, phage library variant, format as m9) [TACI_d2 Q95P] | > 39
9 | SLSCRKEQGKFYDHLLRDCISCASICGQHPEQCAYFCENKLR (receptor, phage library variant, format as m9) [TACI_d2 K98E] | 6.9
10 | SLSCRKEQGKFYDHLLRDCISCASICGQHPKACAYFCENKLR (receptor, phage library variant, format as m9) [TACI_d2 Q99A] | 1.9
11 | SLSCRKEQGKFYDHLLRDCISCASICGQAPKQCAYFCENKLR (receptor, phage library variant, format as m9) [TACI_d2 H96A] | 12
12 | SLSCRKEQGKFYDHLLRDCISCASICGEHPKQCAYFCENKLR (receptor, phage library variant, format as m9) [TACI_d2 Q95E] | 21
13 | SLSCRKEQGKFYDALLRDCISCASICGQHPKQCAYFCENKLR (receptor, phage library variant, format as m9) [TACI_d2 H81A] | 2
14 | SLSCRKEQGKFYDHLLRDCISCASICGQHPKQCAYSCENKLR (receptor, phage library variant, format as m9) [TACI_d2 F103S] | 5.8
15 | SLSCRKEQGKFYDHLLRDCISCASICGQHPKQCAYFCENELR (receptor, phage library variant, format as m9) [TACI_d2 K107E] | 2.1
16 | SLSCRKEQGAFYDHLLRDCISCASICGQHPKQCAYFCENKLR (receptor, phage library variant, format as m9) [TACI_d2 K77A] | 1
17 | SLSCRKEQGKFYDHLLRDCIACASICGQHPKQCAYFCENKLR (receptor, phage library variant, format as m9) [TACI_d2 S88A] | 3.8
18 | SLSCRKEQGKFYDHLLRDCISCASICGQHAKQCAYFCENKLR (receptor, phage library variant, format as m9) [TACI_d2 P97A] | > 20
19 | SLSCREEQGKFYDHLLRDCISCASICGQHPKQCAYFCENKLR (receptor, phage library variant, format as m9) [TACI_d2 K73E] | 7.7
20 | SLSCRKEQGKFYDHLLRDCISCASICGQHPAQCAYFCENKLR (receptor, phage library variant, format as m9) [TACI_d2 K98A] | 3.5
21 | SLSCRKEQGKFYDHLLRDCISCASICGQHPKQCASFCENKLR (receptor, phage library variant, format as m9) [TACI_d2 Y102S] | 1.5
22 | SLSCRKEQAKFYDHLLRDCISCASICGQHPKQCAYFCENKLR (receptor, phage library variant, format as m9) [TACI_d2 G76A] | 1.6
23 | SLSCRKEQGKFYDHLLRDCISCAAICGQHPKQCAYFCENKLR (receptor, phage library variant, format as m9) [TACI_d2 S91A] | 2.1
24 | SLSCRKEQGKFYDHLARDCISCASICGQHPKQCAYFCENKLR (receptor, phage library variant, format as m9) [TACI_d2 L83A] | 31
